Reference: the supplement of paper PMC9233669
Variants at the floor of the assay were thinned out.

How the values were obtained:
biotinyl-Trp-oxazolone = test: self-aminoacylation, catalytic enhancement (BWO) (fold over background); higher = more active; k-Seq, kA / k0A0; sequences stand for … in GGGAAUGGAUCCACAUCUACGAAUUC…UUCACUGCAGACUUGACGAAGCUG
Outline: (§1)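 Each biotinyl-aminoacyl-oxazolone, at 2–1250 μM, was incubated with mutagenized RNA pools (0.43 μM) carrying a 21-nt variable region. The 50 μL reactions contained HEPES/NaCl/KCl/MgCl2/CaCl2 buffer with 5% acetonitrile at pH 6.9–7.0 and ran for 90 minutes at room temperature. After streptavidin capture, RNA was measured by qPCR in triplicate and by Illumina sequencing, and catalytic enhancement was calculated as median kA over the uncatalyzed rate from a pseudo-first-order fit of per-sequence fraction reacted.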

biotinyl-Phe-oxazolone = test: self-aminoacylation, catalytic enhancement (BFO) (fold over background); higher = more active; k-Seq, kA / k0A0; sequences stand for … in GGGAAUGGAUCCACAUCUACGAAUUC…UUCACUGCAGACUUGACGAAGCUG
Outline: as §1

| Sequence | self-aminoacylation (biotinyl-Trp-oxazolone) | self-aminoacylation (biotinyl-Phe-oxazolone) |
| --- | --- | --- |
| AAGUUUGCCAAUUGUCGCAAG [Fam3.1 aminoacylation ribozyme variant] | 2.15 | 2.77 |
| ACAAACUUCAAGCAAUCGGUC [Fam1B.1 aminoacylation ribozyme variant] | 9.7 | 15 |
| ACACACUUCAAGCAAUCGGUC [Fam1B.1 aminoacylation ribozyme variant] | 13.1 | 27.1 |
| ACGUUUGCUAAUAGUCGCAAG [Fam3.1 aminoacylation ribozyme variant] | 3.66 | 9.06 |
| AGGUGUGCUAAUAGUCGCAAG [Fam3.1 aminoacylation ribozyme variant] | 2.52 | 5.87 |
| AUACAUCAAACAAUCGGUCUG [Fam1A.1 aminoacylation ribozyme variant] | 2.68 | 4.05 |
| AUACUUCAAACAAUCGGUCUG [Fam1A.1 aminoacylation ribozyme variant] | 9.11 | 14.7 |
| AUGUUUGCUAAUAGUCGCAAG [Fam3.1 aminoacylation ribozyme variant] | 4.22 | 12.9 |
| AUUCACCUCGGUCAUCAGGUG [Fam2.2 aminoacylation ribozyme variant] | 2.02 | 4.3 |
| AUUGACCUAGGUCAUCGGGAG [Fam2.2 aminoacylation ribozyme variant] | 2.04 | 3.29 |
| CAAAUUCAAACAAUCGGUCUG [Fam1A.1 aminoacylation ribozyme variant] | 3.94 | 6.39 |
| CAACAUCAAACAAUCGGUCUG [Fam1A.1 aminoacylation ribozyme variant] | 3.73 | 7.46 |
| CAACCCUUCAAGCAAUCGGUC [Fam1B.1 aminoacylation ribozyme variant] | 2.72 | 2.9 |
| CAACUUCAAACAAUCGGUCCG [Fam1A.1 aminoacylation ribozyme variant] | 4.86 | 5.44 |
| CAACUUCAAACAAUCGGUCUC [Fam1A.1 aminoacylation ribozyme variant] | 37.7 | 75.3 |
| CCAAACUUCAACCAAUCGGUC [Fam1B.1 aminoacylation ribozyme variant] | 27.5 | 43.8 |
| CCAAACUUCAAGCAAUCGGUU [Fam1B.1 aminoacylation ribozyme variant] | 4.36 | 5.01 |
| CCACAAUUCAACCAAUCGGUC [Fam1B.1 aminoacylation ribozyme variant] | 5.9 | 6.75 |
| CCACACUUCAAAUAAUCGGUC [Fam1B.1 aminoacylation ribozyme variant] | 13.7 | 23.8 |
| CCACACUUCAAUCGAUCGGUC [Fam1B.1 aminoacylation ribozyme variant] | 2.43 | 2.48 |
| CCACACUUCAAUGAAUCGGUC [Fam1B.1 aminoacylation ribozyme variant] | 10.3 | 14.4 |
| CCACUUCAAACAAUCAGUCUG [Fam1A.1 aminoacylation ribozyme variant] | 10.1 | 29.2 |
| CCAGACUUCAAGUAAUCGGUC [Fam1B.1 aminoacylation ribozyme variant] | 8.35 | 11.5 |
| CCAUACUUCAACCAAUCGGUC [Fam1B.1 aminoacylation ribozyme variant] | 17.2 | 32.7 |

| Sequence | self-aminoacylation (biotinyl-Trp-oxazolone) | self-aminoacylation (biotinyl-Phe-oxazolone) |
| --- | --- | --- |
| CCAUACUUCAAUCAAUCGGUC [Fam1B.1 aminoacylation ribozyme variant] | 15.9 | 31.2 |
| CCCCAAUUCAAGCAAUCGGUC [Fam1B.1 aminoacylation ribozyme variant] | 7.09 | 7.89 |
| CCGCACUUCAAGAAAUCGGUC [Fam1B.1 aminoacylation ribozyme variant] | 10.3 | 12.2 |
| CCUCACUUCAAGAAAUCGGUC [Fam1B.1 aminoacylation ribozyme variant] | 7.71 | 11 |
| CCUCACUUCAAUCAAUCGGUC [Fam1B.1 aminoacylation ribozyme variant] | 17.9 | 39.5 |
| CGACUCCAAACAAUCGGUCUG [Fam1A.1 aminoacylation ribozyme variant] | 3.11 | 3.55 |
| CGAGUUCAAACAAUCGGUCUG [Fam1A.1 aminoacylation ribozyme variant] | 4.57 | 6.84 |
| CGGCACUUCAAGCAAUCGGUC [Fam1B.1 aminoacylation ribozyme variant] | 20.1 | 34.7 |
| CUAAUUCAAACAAUCGGCCUG [Fam1A.1 aminoacylation ribozyme variant] | 3.89 | 5.4 |
| CUAAUUCAAACAAUCGGUCUC [Fam1A.1 aminoacylation ribozyme variant] | 2.9 | 6.39 |
| CUAAUUCAAACAAUCGGUCUG [Fam1A.1 aminoacylation ribozyme variant] | 3.52 | 7.13 |
| CUACACUUCAACCAAUCGGUC [Fam1B.1 aminoacylation ribozyme variant] | 30 | 59.2 |
| CUACACUUCAAGGAAUCGGUC [Fam1B.1 aminoacylation ribozyme variant] | 4.18 | 3.89 |
| CUACACUUCAAGUAAUCGGUC [Fam1B.1 aminoacylation ribozyme variant] | 7.07 | 13.1 |
| CUACGUCAAAAAAUCGGUCUG [Fam1A.1 aminoacylation ribozyme variant] | 2.35 | 5.5 |
| CUACUUCAAACAAUCAGUCAG [Fam1A.1 aminoacylation ribozyme variant] | 2.43 | 6.15 |
| CUACUUCAAACAAUCAGUCUG [Fam1A.1 aminoacylation ribozyme variant] | 9.7 | 27.8 |
| CUACUUCAAACAAUCGGACUG [Fam1A.1 aminoacylation ribozyme variant] | 7.87 | 17.5 |
| CUACUUCAAACAAUCGGUCCU [Fam1A.1 aminoacylation ribozyme variant] | 3.25 | 6.8 |
| CUACUUCAAACAAUCGGUCGC [Fam1A.1 aminoacylation ribozyme variant] | 26.2 | 46.9 |
| CUACUUCAAACAAUCGGUCUC [Fam1A.1 aminoacylation ribozyme variant] | 24.6 | 52.6 |
| CUACUUCAAACAAUCGGUCUG [Fam1A.1 aminoacylation ribozyme variant] | 31.4 | 67.9 |
| CUACUUCAAACAAUCGGUGUG [Fam1A.1 aminoacylation ribozyme variant] | 5.78 | 10.2 |
